Target: the molecule itself
Assay: negative-stain transmission electron microscopy

B1: LPS-free OmpF refolded from inclusion bodies, reconstituted into Amphipol A8-35 (natural protein)
chain: MEIYNKDGNKVDLYGKAVGLHYFSKGNGENSYGGNGDMTYARLGFKGETQINSDLTGYGQWEYNFQGNNSEGADAQTGNKTRLAFAGLKYADVGSFDYGRNYGVVYDALGYTDMLPEFGGDTAYSDDFFVGRVGGVATYRNSNFFGLVDGLNFAVQYLGKNERDTARRSNGDGVGGSISYEYEGFGIVGAYGAADRTNLQEAQPLGNGKKAEQWATGLKYDANNIYLAANYGETRNATPITNKFTNTSGFANKTQDVLLVAQYQFDFGLRPSIAYTKSKAKDVEGIGDVDLVNYFEVGATYYFNKNMSTYVDYIINQIDSDNKLGVGSDDTVAVGIVYQF
  binding result: binds

Source: paper PMC4196048 (The Journal of Membrane Biology, 2014)
